# Measurements: ChEMBL document CHEMBL2073859, “Transport of 7-ethyl-10-hydroxycamptothecin (SN-38) by breast cancer resistance protein ABCG2 in human lung cancer cells” (Biochem Biophys Res Commun, 2001)
# B1: Broad substrate specificity ATP-binding cassette transporter ABCG2 (Homo sapiens) (protein)
# chain: MSSSNVEVFIPVSQGNTNGFPATASNDLKAFTEGAVLSFHNICYRVKLKSGFLPCRKPVEKEILSNINGIMKPGLNAILGPTGGGKSSLLDVLAARKDPSGLSGDVLINGAPRPANFKCNSGYVVQDDVVMGTLTVRENLQFSAALRLATTMTNHEKNERINRVIQELGLDKVADSKVGTQFIRGVSGGERKRTSIGMELITDPSILFLDEPTTGLDSSTANAVLLLLKRMSKQGRTIIFSIHQPRYSIFKLFDSLTLLASGRLMFHGPAQEALGYFESAGYHCEAYNNPADFFLDIINGDSTAVALNREEDFKATEIIEPSKQDKPLIEKLAEIYVNSSFYKETKAELHQLSGGEKKKKITVFKEISYTTSFCHQLRWVSKRSFKNLLGNPQASIAQIIVTVVLGLVIGAIYFGLKNDSTGIQNRAGVLFFLTTNQCFSSVSAVELFVVEKKLFIHEYISGYYRVSSYFLGKLLSDLLPMRMLPSIIFTCIVYFMLGLKPKADAFFVMMFTLMMVAYSASSMALAIAAGQSVVSVATLLMTICFVFMMIFSGLLVNLTTIASWLSWLQYFSIPRYGFTALQHNEFLGQNFCPGLNATGNNPCNYATCTGEEYLVKQGIDLSPWGLWKNHVALACMIVIFLTIAYLKLLFLKKYS
# What was measured:
# [1] = substrate: CCc1c2c(nc3ccc(O)cc13)-c1cc3c(c(=O)n1C2)COC(=O)[C@]3(O)CC; test: (§1) TP_TRANSPORTER: uptake in membrane vesicle from PC-6/SN2-5H cells; type: functional, cell membranes
# [2] = substrate: CCc1c2c(nc3ccc(OC[C@@H]4O[C@H](C(=O)O)[C@@H](O)[C@H](O)[C@H]4O)cc13)-c1cc3c(c(=O)n1C2)COC(=O)[C@]3(O)CC; test: as §1; type: functional, cell membranes
protein,measurement,setting,value
B1,Km,[1],4 µM
same,Km,[2],26 µM
